We go through four substances from FireProtDB (doi:10.1110/ps.8.12.2645).

For the data set the following is noted: Saccharomyces cerevisiae (strain ATCC 204508 / S288c), pH 6, Thermal, DSC, Sodium phosphate 0.1 M, reversible: yes.

Sequence of Cytochrome c isoform 1 F88Y, P00044 (P00044 whole entry F88Y, canonical isoform): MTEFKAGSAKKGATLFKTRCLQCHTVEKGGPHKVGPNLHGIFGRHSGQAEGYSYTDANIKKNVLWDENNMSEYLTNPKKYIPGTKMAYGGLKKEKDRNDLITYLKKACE
Sequence of Cytochrome c isoform 1 L91A, P00044 (P00044 whole entry L91A, canonical isoform): as the sequence (P00044 whole entry F88Y, canonical isoform) above, with Y88F, L91A counted along it
Sequence of Cytochrome c isoform 1 wild type, P00044 (P00044 whole entry, canonical isoform): as the sequence (P00044 whole entry F88Y, canonical isoform) above, with Y88F counted along it
Sequence of Cytochrome c isoform 1 F88Y|L91A, P00044 F88Y L91A (P00044 whole entry F88Y/L91A, canonical isoform): as the sequence (P00044 whole entry F88Y, canonical isoform) above, with L91A counted along it

Turning to Cytochrome c isoform 1 F88Y, P00044, where the note is “25 °C, structure 1YCC”, the “ddG of mutation (higher = less stable)” value is 2.93 kJ/mol, the “heat capacity change of unfolding” value was determined as 0.58 kcal/mol/K, the “unfolding enthalpy (calorimetric)” value is 113 kJ/mol and the unfolding free energy was 20.1 kJ/mol. In addition, where the note is “60 °C, structure 1YCC”, the “unfolding enthalpy (calorimetric)” value was found to be 347 kJ/mol and the unfolding free energy amounted to 4.23 kJ/mol. Where the note is “structure 1YCC”, the Tm is 55.8 °C, the “heat capacity change of unfolding” value was determined as 0.58 kcal/mol/K, the “unfolding enthalpy (calorimetric)” value came to 318 kJ/mol and the “unfolding enthalpy (van 't Hoff)” value came out at 431 kJ/mol.
Consider “Cytochrome c isoform 1 F88Y|L91A, P00044 F88Y L91A”, for which, for the setting “60 °C, structure 1YCC”, the “unfolding enthalpy (calorimetric)” value was determined as 335 kJ/mol. Also, where the note is “structure 1YCC”, the melting temperature (Tm) is 45.6 °C, the “heat capacity change of unfolding” value turned out to be 0.31 kcal/mol/K, the “unfolding enthalpy (calorimetric)” value is 238 kJ/mol and the “unfolding enthalpy (van 't Hoff)” value came to 385 kJ/mol.
As to Cytochrome c isoform 1 L91A, P00044, under “25 °C, structure 1YCC”, the “ddG of mutation (higher = less stable)” value is 11.7 kJ/mol, the “heat capacity change of unfolding” value was 0.45 kcal/mol/K, the “unfolding enthalpy (calorimetric)” value amounted to 96.2 kJ/mol and the unfolding free energy was 11.3 kJ/mol. Under “60 °C, structure 1YCC”, the “unfolding enthalpy (calorimetric)” value stood at 331 kJ/mol and the unfolding free energy came to 12.1 kJ/mol. Where the note is “structure 1YCC”, the Tm was 46.3 °C, the “heat capacity change of unfolding” value was found to be 0.45 kcal/mol/K, the “unfolding enthalpy (calorimetric)” value was determined as 238 kJ/mol and the “unfolding enthalpy (van 't Hoff)” value came out at 368 kJ/mol.
For the substance “Cytochrome c isoform 1 wild type, P00044”, the Tm stood at 60 °C, the “heat capacity change of unfolding” value amounted to 0.26 kcal/mol/K, the “unfolding enthalpy (calorimetric)” value is 339 kJ/mol and the “unfolding enthalpy (van 't Hoff)” value turned out to be 460 kJ/mol. Further, under “25 °C”, the “heat capacity change of unfolding” value turned out to be 0.26 kcal/mol/K, the “unfolding enthalpy (calorimetric)” value was 109 kJ/mol and the unfolding free energy was determined as 23 kJ/mol. The “unfolding enthalpy (calorimetric)” value (60 °C) came out at 339 kJ/mol.
